Data reported in patent US20180177810A1 (UNIVERSITY OF NOTRE DAME DU LAC, published 2018).
Where no end group is shown, it is not given here.

Molecular target: T1, Very late antigen-4 (VLA-4; α4β1 integrin) on multiple myeloma cell lines (human, UniProt P13612 34-1032; P05556 21-798)
T1 construct: whole, on cells; also called VLA-4 receptor
Assay: peptide screen of Example 1 (FITC-labeled peptides on MM cells, flow cytometry)

T1 sequence (P13612 34-1032, chain 1 of 2): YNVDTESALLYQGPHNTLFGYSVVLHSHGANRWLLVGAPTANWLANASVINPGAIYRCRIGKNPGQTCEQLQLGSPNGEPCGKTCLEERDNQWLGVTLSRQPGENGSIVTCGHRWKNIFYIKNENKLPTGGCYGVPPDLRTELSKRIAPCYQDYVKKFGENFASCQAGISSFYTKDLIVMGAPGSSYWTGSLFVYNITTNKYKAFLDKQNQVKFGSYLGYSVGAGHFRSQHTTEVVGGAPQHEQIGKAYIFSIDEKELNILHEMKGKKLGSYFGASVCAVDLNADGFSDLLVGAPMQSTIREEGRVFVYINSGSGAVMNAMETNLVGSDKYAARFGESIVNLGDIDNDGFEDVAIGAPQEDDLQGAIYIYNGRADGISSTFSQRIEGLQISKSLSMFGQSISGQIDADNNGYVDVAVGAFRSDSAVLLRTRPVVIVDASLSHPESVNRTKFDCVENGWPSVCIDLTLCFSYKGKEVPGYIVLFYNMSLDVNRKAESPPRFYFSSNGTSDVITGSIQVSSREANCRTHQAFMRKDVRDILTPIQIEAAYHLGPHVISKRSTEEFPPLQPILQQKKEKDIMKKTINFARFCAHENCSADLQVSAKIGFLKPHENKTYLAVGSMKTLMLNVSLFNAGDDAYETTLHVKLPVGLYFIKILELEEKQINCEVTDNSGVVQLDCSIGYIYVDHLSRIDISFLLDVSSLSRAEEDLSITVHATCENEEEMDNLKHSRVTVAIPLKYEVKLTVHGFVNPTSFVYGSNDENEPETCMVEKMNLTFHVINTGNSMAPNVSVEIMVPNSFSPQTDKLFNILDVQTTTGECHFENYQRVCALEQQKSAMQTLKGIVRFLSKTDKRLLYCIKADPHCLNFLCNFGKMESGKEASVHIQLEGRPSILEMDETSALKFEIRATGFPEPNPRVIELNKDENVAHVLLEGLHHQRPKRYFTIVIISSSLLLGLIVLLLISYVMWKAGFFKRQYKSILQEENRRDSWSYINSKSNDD
T1 sequence (P05556 21-798, chain 2 of 2): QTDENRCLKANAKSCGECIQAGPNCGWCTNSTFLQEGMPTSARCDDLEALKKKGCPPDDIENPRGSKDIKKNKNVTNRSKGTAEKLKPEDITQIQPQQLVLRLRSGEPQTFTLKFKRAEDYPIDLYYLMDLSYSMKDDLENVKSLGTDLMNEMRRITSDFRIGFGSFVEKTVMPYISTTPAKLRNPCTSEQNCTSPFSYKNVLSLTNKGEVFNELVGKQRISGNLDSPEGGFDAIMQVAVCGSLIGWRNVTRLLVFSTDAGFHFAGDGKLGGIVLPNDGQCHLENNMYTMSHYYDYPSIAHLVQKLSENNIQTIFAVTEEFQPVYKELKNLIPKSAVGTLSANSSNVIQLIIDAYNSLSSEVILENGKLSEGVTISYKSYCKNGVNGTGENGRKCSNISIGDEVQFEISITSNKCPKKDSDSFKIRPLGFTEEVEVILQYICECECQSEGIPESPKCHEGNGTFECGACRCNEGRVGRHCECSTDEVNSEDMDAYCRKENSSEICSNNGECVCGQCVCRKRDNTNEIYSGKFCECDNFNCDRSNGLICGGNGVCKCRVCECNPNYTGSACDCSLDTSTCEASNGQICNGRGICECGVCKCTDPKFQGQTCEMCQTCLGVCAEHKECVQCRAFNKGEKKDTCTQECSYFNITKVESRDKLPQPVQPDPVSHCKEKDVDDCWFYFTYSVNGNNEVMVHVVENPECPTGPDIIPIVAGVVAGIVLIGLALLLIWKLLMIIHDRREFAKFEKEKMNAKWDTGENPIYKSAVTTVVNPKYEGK

binding result: binds
B1: peptide sequence CFLDFP (peptide)
peptide: CFLDFP
modifications: not fully specified (C-terminus); also: FITC-labelled version synthesized for binding assays
notes: The assay for this peptide is not described separately
